Literature values in publication PMC7229808.

Molecular target: PCNA (Saccharomyces cerevisiae) (UniProt P15873)
Experiment: NMR titration

Sequence of UniProt P15873 (P15873 whole entry): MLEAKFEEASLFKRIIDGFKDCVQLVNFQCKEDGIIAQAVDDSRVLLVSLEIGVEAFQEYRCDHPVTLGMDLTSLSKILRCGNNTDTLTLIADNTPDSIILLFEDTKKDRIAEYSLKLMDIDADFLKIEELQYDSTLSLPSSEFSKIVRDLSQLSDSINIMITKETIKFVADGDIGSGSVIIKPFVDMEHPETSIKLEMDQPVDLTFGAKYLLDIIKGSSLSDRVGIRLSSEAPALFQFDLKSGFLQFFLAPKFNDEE

Kd: 78 µM
Substance: Rev1 BRCT (from UniProt P12689)
